Laboratory results as given in patent publication US20240261333A1 (published 2024).

T1: JUP (human, UniProt P14923 1-745)
T1 construct: also called NP_001339702.1
T1 sequence (looked up): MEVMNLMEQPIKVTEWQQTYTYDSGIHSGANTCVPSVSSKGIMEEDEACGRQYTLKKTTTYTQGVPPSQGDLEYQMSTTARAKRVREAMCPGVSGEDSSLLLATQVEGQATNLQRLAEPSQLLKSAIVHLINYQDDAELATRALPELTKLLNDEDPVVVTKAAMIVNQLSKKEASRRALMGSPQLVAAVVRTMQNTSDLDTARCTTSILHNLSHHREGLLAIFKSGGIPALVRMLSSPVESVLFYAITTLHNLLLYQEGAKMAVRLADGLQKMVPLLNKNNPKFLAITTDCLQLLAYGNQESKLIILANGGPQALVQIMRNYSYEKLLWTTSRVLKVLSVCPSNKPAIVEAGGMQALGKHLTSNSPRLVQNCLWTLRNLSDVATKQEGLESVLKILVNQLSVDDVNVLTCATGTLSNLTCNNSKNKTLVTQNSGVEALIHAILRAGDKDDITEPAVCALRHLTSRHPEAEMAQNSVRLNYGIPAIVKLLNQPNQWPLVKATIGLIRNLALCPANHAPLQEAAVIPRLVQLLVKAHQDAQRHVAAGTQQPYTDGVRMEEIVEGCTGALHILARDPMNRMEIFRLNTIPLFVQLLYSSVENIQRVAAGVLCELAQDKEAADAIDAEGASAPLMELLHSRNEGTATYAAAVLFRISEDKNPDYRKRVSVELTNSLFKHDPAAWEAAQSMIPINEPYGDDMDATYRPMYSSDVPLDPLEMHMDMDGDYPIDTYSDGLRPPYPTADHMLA

T2: SRSF6 (human, UniProt Q13247 1-344)
T2 construct: also called NP_006266.2
T2 sequence (looked up): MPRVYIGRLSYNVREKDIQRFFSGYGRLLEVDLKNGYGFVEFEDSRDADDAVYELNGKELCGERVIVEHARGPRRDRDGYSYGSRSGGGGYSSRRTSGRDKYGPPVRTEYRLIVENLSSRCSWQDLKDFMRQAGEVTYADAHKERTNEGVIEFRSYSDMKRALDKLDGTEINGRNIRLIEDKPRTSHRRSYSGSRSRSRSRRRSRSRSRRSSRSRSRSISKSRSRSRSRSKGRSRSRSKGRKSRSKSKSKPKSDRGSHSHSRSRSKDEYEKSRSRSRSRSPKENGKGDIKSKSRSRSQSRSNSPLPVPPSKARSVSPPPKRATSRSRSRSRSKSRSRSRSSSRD

B1: N-terminal FLAG tagged B3GNT2 (enzyme, human, UniProt Q9NY97 1-397, looked up)
chain: MSVGRRRIKLLGILMMANVFIYFIMEVSKSSSQEKNGKGEVIIPKEKFWKISTPPEAYWNREQEKLNRQYNPILSMLTNQTGEAGRLSNISHLNYCEPDLRVTSVVTGFNNLPDRFKDFLLYLRCRNYSLLIDQPDKCAKKPFLLLAIKSLTPHFARRQAIRESWGQESNAGNQTVVRVFLLGQTPPEDNHPDLSDMLKFESEKHQDILMWNYRDTFFNLSLKEVLFLRWVSTSCPDTEFVFKGDDDVFVNTHHILNYLNSLSKTKAKDLFIGDVIHNAGPHRDKKLKYYIPEVVYSGLYPPYAGGGGFLYSGHLALRLYHITDQVHLYPIDDVYTGMCLQKLGLVPEKHKGFRTFDIEEKNKNNICSYVDLMLVHSRKPQEMIDIWSQLQSAHLKC
notes: FLAG-tagged ORF overexpressed in cells; pulled down from lysate with mouse anti-FLAG; also called N-FLAG B3GNT2; N-term FLAG; not shown: N-terminal FLAG tag
B2: N-terminal FLAG tagged B3GNT2 (enzyme, human, UniProt Q9NY97 1-397, looked up)
chain: B1 chain
notes: FLAG-tagged ORF overexpressed in A375 cells; pulled down from the lysate with mouse anti-FLAG; also called N-FLAG B3GNT2; N-term FLAG; not shown: N-terminal FLAG tag

What was measured:
Assay in all cases: co-IP with anti-FLAG, N-FLAG B3GNT2, mass spectrometry
RPL23 = RPL23 (human, UniProt P62829 1-140)
Method: (§1) Cells were plated in 10-cm cell culture dishes and grown to 60-80% confluency. For each condition, two biological replicates were harvested for co-IP. Cells were washed with PBS and 4 mL of lysis buffer (20 mM HEPES, 1% Triton X-100, 150 mM NaCl, 1 mM EDTA, and 10% glycerol) containing protease inhibitor cocktail was added. Cells were scraped and lysate was incubated at 4° C. under rotary agitation for 1 h. Lysate was centrifuged at 14,000×g for 10 min at 4° C. Supernatant was transferred to a new tube and an aliquot was taken as the input. […] For Western blots, 10 μg/mL Chicken Anti-FLAG (Aves labs ET-DY100) and IgY control (R&D Systems AB-101-C) antibodies were biotinylated (Thermo Fisher Scientific 90407) and added to the respective conditions. Lysates with antibodies were incubated at 4° C. under rotary agitation overnight. For each mL of lysate, 50 μL of Pierce Protein A/G Magnetic Beads (Mass spectrometry; Thermo Fisher Scientific 88803) or Pierce Streptavidin Magnetic Beads (Western blot; Thermo Fisher Scientific 88817) was washed twice with lysis buffer. Lysates with antibodies were added to the beads and incubated at 4° C. under rotary agitation for 4 h. Beads were washed with lysis buffer 3 times and resuspended in lysis buffer for storage.
(§2) Magnetic beads were resuspended in 100 mM Tris pH 7.8, reduced, alkylated and digested with trypsin at 37° ° C. overnight. This solution was subjected to solid phase extraction to concentrate the peptides and remove unwanted reagents followed by injection onto a Shimadzu HPLC with fraction collector. Eight fractions were collected and after concentration were injected on a Waters NanoAcquity HPLC equipped with a self-packed Aeris 3 μm C18 analytical column 0.075 mm by 20 cm, (Phenomenex). Peptides were eluted using standard reverse-phase gradients. The effluent from the column was analyzed using a Thermo Orbitrap Elite mass spectrometer (nanospray configuration) operated in a data dependent manner for 54 minutes. The resulting fragmentation spectra were correlated against the known database using Proteome Discover 1.4 (Thermo Fisher Scientific).

RPL7A = RPL7A (human, UniProt P62424 1-266)
Method: as §1, §2

JUP = molecular target: T1, JUP
Method: as §1, §2

SRSF6 = molecular target: T2, SRSF6
Method: as §1, §2

RPS24 = molecular target: T3, RPS24 (human, UniProt P62847-4 1-289, limits assumed)
T3 construct: also called NP_001135757.1
Method: as §1, §2

ARPC1B = molecular target: T4, ARPC1B (human, UniProt O15143 2-372)
T4 construct: also called NP_005711.1
Method: as §1, §2

T3 sequence (P62847 other isoform, or with tags, fused parts or gaps limits assumed): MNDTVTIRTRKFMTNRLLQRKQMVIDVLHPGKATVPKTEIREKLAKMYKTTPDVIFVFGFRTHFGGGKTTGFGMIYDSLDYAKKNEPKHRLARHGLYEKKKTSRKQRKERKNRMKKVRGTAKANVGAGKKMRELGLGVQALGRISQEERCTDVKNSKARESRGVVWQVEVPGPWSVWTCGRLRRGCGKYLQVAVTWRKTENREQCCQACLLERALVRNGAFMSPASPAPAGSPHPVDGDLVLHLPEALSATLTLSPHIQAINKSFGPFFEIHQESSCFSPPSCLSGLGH

Binder	co-IP mass spectrometry count (RPL23)	co-IP/MS count, N-term FLAG (RPL7A)	co-IP/MS count, N-term FLAG (JUP)	co-IP/MS count, N-term FLAG (SRSF6)	co-IP/MS count, N-term FLAG (RPS24)	co-IP/MS count, N-term FLAG (ARPC1B)
B1	7	–	–	–	–	–
B2	–	8	47	6	0	0
